Experimental data: US12723255B2, “Herbicide tolerance genes and methods of use thereof” (priority 2014, dated 2026)

Assays:
Assay type in all cases: in vivo
F1 hybrid maize plants [1] = experiment: efficacy field trial for 2,4-D tolerance; conditions: scale 0 to 100, with CTP unless label says no CTP
Description: (§1) Separate trait efficacy field trials for quizalofop-P and 2,4-D were conducted at two locations cach with F1 hybrid transgenic plants produced by crossing an inbred plant containing maize event MON89034 with an R1 plant containing MON-HT55 (with a CTP), MON-HTI (with or without a CTP), MON-HT2 (with or without a CTP), MON-HT3 (with a CTP), MON-HT4 (with a CTP), MON-HT5 (with a CTP), MON-HT6 (with a CTP), or MON-HT7 (with a CTP). Transgenic F1 hybrid plants containing maize events NK603×MON89034 were used for comparison as a control.
In the efficacy field trial for 2,4-D tolerance, one of four herbicide treatments was used: (1) 2,4-D amine at 2 lb ac/acre (2×) plus 0.25% v/v non-ionic surfactant (NIS) applied to VE to V2 followed by V4 followed by V8; (2) 2,4-D amine at 4 lb ac/acre (4×) plus 0.25% v/v NIS applied to VE to V2 followed by V4 followed by V8; (3) 2,4-D amine at 8 lb ac/acre (8×) plus 0.25% v/v NIS applied to VE to V2 followed by V4 followed by V8 maize; or (4) 2,4-D amine at 16 lb ac/acre (16×) plus 0.25% v/v NIS applied to VE to V2 followed by V4 followed by V8. Plots were visually rated as above. Tables 14 and 15 show the average injury ratings after herbicide application at V4 or V8 growth stage, respectively.

F1 hybrid maize plants [2] = experiment: efficacy field trial for quizalofop-P tolerance and clethodim sensitivity; conditions: scale 0 to 100
Description: as §1
In the efficacy field trial for quizalofop-P tolerance and clethodim sensitivity, one of four herbicide treatments was used: (1) quizalofop-P (Assure II) at 0.32 lb ai/acre (4×) plus 0.25% v/v non-ionic surfactant (NIS) applied at VE-V2 growth stage followed by the same at V4 growth stage followed by the same at V8 growth stage; (2) quizalofop-P at 0.64 lb ai/acre (8×) plus 0.25% v/v NIS applied at VE to V2 growth stage followed by the same at V4 growth stage followed by the same at V8 growth stage; (3) quizalofop-P at 1.28 lb ai/acre (16×) plus 0.25% v/v NIS applied at VE to V2 growth stage followed by the same at V4 growth stage followed by the same at V8growth stage; or (4) clethodim at 0.25 lb ai/acre (1×) plus 0.25% v/v NIS applied at V8 growth stage. Plots were visually rated 10-14 days after application for crop injury on a scale of 0 to 100with “0” being none and “100” being complete crop destruction. Tables 14 and 15 show the average injury ratings after herbicide application at V4 or V8 growth stage, respectively.

F1 hybrid maize plants [3] = experiment: efficacy field trial with segregating F1 hybrid plants; conditions: CTP A
Description: Ten unique engineered proteins optimized for activity at higher temperatures were selected for maize transformation and analysis in plants. DNA constructs were produced for expressing these engineered proteins with codon usage optimized for monocot expression using methods known to those skilled in the art. Enhancers, promoters, leaders, introns, CTPs, and 3′UTRs were tested in various combinations with the engineered proteins in these DNA constructs. The DNA constructs were used to transform immature maize (LH244) embryos with these vectors using Agrobacterium tumifaciens and standard methods known in the art. Regenerated R0 transgenic plantlets were grown in the green house.
Transgenic R0 maize plants were screened by the application of quizalofop-P (2×) plus 2,4-D (2×) at 7 to 10 days following transplant into plugs (generally corresponding to V3-V4 growth stage). All constructs tested produced plants containing unique events that passed the RO screen. The R0 plants were selfed to generate R1 homozygous seed and the R0 was also used as the male to cross with inbred plants containing maize event MON89034 to generate segregating F1 hybrid seed for efficacy field trials.
An efficacy field trial was conducted with segregating F1 hybrid plants, with 50% hemizygous and 50% null for the transgene. Tolerance to quizalofop-P (2×) plus 2,4-D (2×) was assessed using two herbicide application regimens: (1) quizalofop-P (Assure II) at 0.16 lb ai/acre (2×) plus 0.25% v/v non-ionic surfactant (NIS) applied at VE-V2 growth stage followed by the same at V4 growth stage followed by the same at V8 growth stage and (2) 2,4-D amine at 2 lb ae/acre (2×) plus quizalofop-P at 0.04 lb ai/acre (0.5×) plus 0.25% v/v NIS applied at VE-V2 growth stage followed by 2,4-D amine at 2 lb ae/acre (2×) plus 0.25% v/v NIS applied at V4 growth stage followed by the same at V8 growth stage. The 50% of the plants that were null for transgene were removed by the first quizalofop-P application at VE-V2 growth stage. Plots were visually rated 10-14 days after application for crop injury on a scale of 0 to 100 with “0” being none and “100” being complete crop destruction. […] The percentage injury rating with 2× application of 2,4-D at V8 growth stage ranged from a high of 40% to a low of 0. Similarly, the percentage injury rating with 2× application of quizalofop-P at V8 growth stage ranged from a high of 90% to a low of 0. Variation in injury rating between plants expressing the same protein is likely due to variations in construct design or transgene insertion location.

[4] = 0.32 lb ai/acre at VE-V2, V4, V8, with CTP unless label says no CTP
[5] = 0.64 lb ai/acre at VE-V2, V4, V8, with CTP unless label says no CTP
[6] = 1.28 lb ai/acre at VE-V2, V4, V8, with CTP unless label says no CTP
[7] = 2,4-D amine 2× at VE-V2 (plus quizalofop-P 0.5×), V4, V8
[8] = quizalofop-P 2× at VE-V2, V4, V8

B1: MON-HT3: engineered oxygenase protein, amino acid sequence SEQ ID NO:22 (protein)
chain: MHAALSPLSQRFERIAVQPLTGVLGAEITGVDLREPLDDSTWNEILDAFHTYQVIYFPGQAITNEQHIAFSRRFGPVDPVPLLKSIEGYPEVQMIRREANESGRVIGDDWHTDSTFLDAPPAAVVMYAKEVPPYGGDTLFASMYTAWETLSPTMQATIEGLNVVHSATRVFGSLYQAQNRRFSNTSVKVMDVDAGDRETVHPLVVTHPETGRKGLYVNQVYCQRIEGMSEKESEPLLSFLFAHATKPEFTCRVRWQEGQVLVWDNLCTQHFAVPDYAGKFRYLTRTTVGGVRPAR
- average injury rating, V4 Growth Stage, 2x 2,4-D (F1 hybrid maize plants [1]; 2 lb ae/acre at VE-V2, V4, V8): 3.8
- average injury rating, V8 Growth Stage, 2x 2,4-D (F1 hybrid maize plants [1]; 2 lb ae/acre at VE-V2, V4, V8): 5.5
- average injury rating, V4 Growth Stage, 4x 2,4-D (F1 hybrid maize plants [1]; 4 lb ae/acre at VE-V2, V4, V8): 6.3
- average injury rating, V8 Growth Stage, 4x 2,4-D (F1 hybrid maize plants [1]; 4 lb ae/acre at VE-V2, V4, V8): 5.5
- average injury rating, V4 Growth Stage, 8x 2,4-D (F1 hybrid maize plants [1]; 8 lb ae/acre at VE-V2, V4, V8): 8.8
- average injury rating, V8 Growth Stage, 8x 2,4-D (F1 hybrid maize plants [1]; 8 lb ae/acre at VE-V2, V4, V8): 11.3
- average injury rating, V4 Growth Stage, 16x 2,4-D (F1 hybrid maize plants [1]; 16 lb ae/acre at VE-V2, V4, V8): 11.3
- average injury rating, V8 Growth Stage, 16x 2,4-D (F1 hybrid maize plants [1]; 16 lb ae/acre at VE-V2, V4, V8): 13.8
- average injury rating, V4 Growth Stage, 4x Quizalofop (F1 hybrid maize plants [2]; [4]): 0.8
- average injury rating, V8 Growth Stage, 4x Quizalofop (F1 hybrid maize plants [2]; [4]): 2.5
- average injury rating, V4 Growth Stage, 8x Quizalofop (F1 hybrid maize plants [2]; [5]): 0.0
- average injury rating, V8 Growth Stage, 8x Quizalofop (F1 hybrid maize plants [2]; [5]): 2.0
- average injury rating, V4 Growth Stage, 16x Quizalofop (F1 hybrid maize plants [2]; [6]): 4.3
- average injury rating, V8 Growth Stage, 16x Quizalofop (F1 hybrid maize plants [2]; [6]): 6.0
- average injury rating, V8 Growth Stage, 1x Clethodim (F1 hybrid maize plants [2]; clethodim 0.25 lb ai/acre at V8, volunteer control): 94.5
- % Injury from V4 2,4-D (F1 hybrid maize plants [3]; [7]): 21.7%
- % Injury from V8 2,4-D (F1 hybrid maize plants [3]; [7]): 9.2%
- % Injury from V4 Quizalofop (F1 hybrid maize plants [3]; [8]): 1.6%
- % Injury from V8 Quizalofop (F1 hybrid maize plants [3]; [8]): 0.5%
